Columns and labels:
HeLa Kyoto [1] = assay: solubility change mitosis vs G1/S (difference of NP-40 vs SDS log2 ratios) (log2 ratio difference); higher = more soluble in mitosis
HeLa Kyoto [2] = assay: melting temperature (median over replicates), in situ; higher = more thermally stable
HeLa Kyoto [3] = assay: solubility in G1/S (NP-40 vs SDS abundance) (log2 ratio); higher = more soluble; settings: cell cycle stage: G1/S
HeLa Kyoto [4] = assay: thermal stability score vs G1/S (z-score of summed log2 fold changes over temperatures); higher = more thermally stable than in G1/S
[5] = cell cycle stage: early G1 (4.5 h after nocodazole release)
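For melting temperature (median over replicates), in situ in this document: HeLa Kyoto cells synchronized by double thymidine or nocodazole block, proteins quantified by TMT10plex mass spectrometry, three independent biological replicates.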
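For solubility change mitosis vs G1/S (difference of NP-40 vs SDS log2 ratios) in this document: synchronized HeLa Kyoto cells (double thymidine block for G1/S, nocodazole release for mitosis), protein amounts in NP-40 versus SDS lysates quantified by mass spectrometry, three biological replicates.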
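For solubility in G1/S (NP-40 vs SDS abundance) in this document: HeLa Kyoto cells arrested at G1/S by double thymidine block, proteins quantified by TMT10plex mass spectrometry in mild NP-40 versus SDS extracts, three biological replicates.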
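For thermal stability score vs G1/S (z-score of summed log2 fold changes over temperatures) in this document: synchronized HeLa Kyoto cells, proteins quantified by TMT10plex mass spectrometry, three biological replicates, mitosis taken 0.5 h after nocodazole release, G1/S directly after double thymidine block.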

Chain of MARK2 (chain, as listed by the source): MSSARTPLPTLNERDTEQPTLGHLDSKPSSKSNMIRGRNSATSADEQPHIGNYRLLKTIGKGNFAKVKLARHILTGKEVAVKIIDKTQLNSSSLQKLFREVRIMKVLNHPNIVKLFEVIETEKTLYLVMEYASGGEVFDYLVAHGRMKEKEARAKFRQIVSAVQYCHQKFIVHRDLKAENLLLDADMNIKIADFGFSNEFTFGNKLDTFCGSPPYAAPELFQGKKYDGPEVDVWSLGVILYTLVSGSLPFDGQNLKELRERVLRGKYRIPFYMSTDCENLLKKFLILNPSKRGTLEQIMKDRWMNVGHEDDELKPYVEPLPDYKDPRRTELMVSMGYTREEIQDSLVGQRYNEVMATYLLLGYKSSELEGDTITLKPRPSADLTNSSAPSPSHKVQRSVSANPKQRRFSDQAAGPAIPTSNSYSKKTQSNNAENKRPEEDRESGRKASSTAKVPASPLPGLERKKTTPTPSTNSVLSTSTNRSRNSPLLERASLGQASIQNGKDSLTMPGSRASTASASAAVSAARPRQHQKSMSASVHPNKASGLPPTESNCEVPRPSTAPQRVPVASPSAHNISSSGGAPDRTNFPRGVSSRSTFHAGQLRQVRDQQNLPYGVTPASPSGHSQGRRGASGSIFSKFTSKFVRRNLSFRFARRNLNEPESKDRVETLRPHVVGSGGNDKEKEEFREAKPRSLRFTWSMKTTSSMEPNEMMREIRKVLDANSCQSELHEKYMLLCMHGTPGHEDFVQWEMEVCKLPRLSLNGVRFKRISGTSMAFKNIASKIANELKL

Substance	solubility change mitosis (log2) (HeLa Kyoto [1])	melting temperature (HeLa Kyoto [2]; cell cycle stage: G1/S) [°C]	melting temperature (HeLa Kyoto [2]; cell cycle stage: mitosis) [°C]	solubility in G1/S (log2) (HeLa Kyoto [3])	thermal stability score (HeLa Kyoto [4]; [5])	thermal stability score (HeLa Kyoto [4]; cell cycle stage: mitosis)
MAGLSDLELRRELQALGFQPGPITDTTRDVYRNKLRRLRGEARLRDEERLREEARPRGEERLREEARLREDAPLRARPAAASPRAEPWLSQPASGSAYATPGAYGDIRPSAASWVGSRGLAYPARPAQLRRRASVRGSSEEDEDARTPDRATQGPGLAARRWWAASPAPARLPSSLLGPDPRPGLRATRAGPAGAARARPEVGRRLERWLSRLLLWASLGLLLVFLGILWVKMGKPSAPQEAEDNMKLLPVDCERKTDEFCQAKQKAALLELLHELYNFLAIQAGNFECGNPENLKSKCIPVMEAQEYIANVTSSSSAKFEAALTWILSSNKDVGIWLKGEDQSELVTTVDKVVCLESAHPRMGVGCRLSRALLTAVTNVLIFFWCLAFLWGLLILLKYRWRKLEEEEQAMYEMVKKIIDVVQDHYVDWEQDMERYPYVGILHVRDSLIPPQSRRRMKRVWDRAVEFLASNESRIQTESHRVAGEDMLVWRWTKPSSFSDSER [LEMD2]	0.776	52.5	51.1	-0.759	-1.63	-1.98
RAPGEF2	-0.144	50.8		-0.143	-0.581	-1.21
MPAPIRLRELIRTIRTARTQAEEREMIQKECAAIRSSFREEDNTYRCRNVAKLLYMHMLGYPAHFGQLECLKLIASQKFTDKRIGYLGAMLLLDERQDVHLLMTNCIKNDLNHSTQFVQGLALCTLGCMGSSEMCRDLAGEVEKLLKTSNSYLRKKAALCAVHVIRKVPELMEMFLPATKNLLNEKNHGVLHTSVVLLTEMCERSPDMLAHFRKLVPQLVRILKNLIMSGYSPEHDVSGISDPFLQVRILRLLRILGRNDDDSSEAMNDILAQVATNTETSKNVGNAILYETVLTIMDIKSESGLRVLAINILGRFLLNNDKNIRYVALTSLLKTVQTDHNAVQRHRSTIVDCLKDLDVSIKRRAMELSFALVNGNNIRGMMKELLYFLDSCEPEFKADCASGIFLAAEKYAPSKRWHIDTIMRVLTTAGSYVRDDAVPNLIQLITNSVEMHAYTVQRLYKAILGDYSQQPLVQVAAWCIGEYGDLLVSGQCEEEEPIQVTEDEVLDILESVLISNMSTSVTRGYALTAIMKLSTRFTCTVNRIKKVVSIYGSSIDVELQQRAVEYNALFKKYDHMRSALLERMPVMEKVTTNGPTEIVQTNGETEPAPLETKPPPSGPQPTSQANDLLDLLGGNDITPVIPTAPTSKPSSAGGELLDLLGDINLTGAPAAAPAPASVPQISQPPFLLDGLSSQPLFNDIAAGIPSITAYSKNGLKIEFTFERSNTNPSVTVITIQASNSTELDMTDFVFQAAVPKTFQLQLLSPSSSIVPAFNTGTITQVIKVLNPQKQQLRMRIKLTYNHKGSAMQDLAEVNNFPPQSWQ [AP1G1]	-0.192	50.3	50.1	-0.225	-1.48	0.274
MARK2	0.0431	49.6	48.7	-0.0826	0.513	0.569
MPLLFLERFPWPSLRTYTGLSGLALLGTIISAYRALSQPEAGPGEPDQLTASLQPEPPAPARPSAGGPRARDVAQYLLSDSLFVWVLVNTACCVLMLVAKLIQCIVFGPLRVSERQHLKDKFWNFIFYKFIFIFGVLNVQTVEEVVMWCLWFAGLVFLHLMVQLCKDRFEYLSFSPTTPMSSHGRVLSLLVAMLLSCCGLAAVCSITGYTHGMHTLAFMAAESLLVTVRTAHVILRYVIHLWDLNHEGTWEGKGTYVYYTDFVMELTLLSLDLMHHIHMLLFGNIWLSMASLVIFMQLRYLFHEVQRRIRRHKNYLRVVGNMEARFAVATPEELAVNNDDCAICWDSMQAARKLPCGHLFHNSCLRSWLEQDTSCPTCRMSLNIADNNRVREEHQGENLDENLVPVAAAEGRPRLNQHNHFFHFDGSRIASWLPSFSVEVMHTTNILGITQASNSQLNAMAHQIQEMFPQVPYHLVLQDLQLTRSVEITTDNILEGRIQVPFPTQRSDSIRPALNSPVERPSSDQEEGETSAQTERVPLDLSPRLEETLDFGEVEVEPSEVEDFEARGSRFSKSADERQRMLVQRKDELLQQARKRFLNKSSEDDAASESFLPSEGASSDPVTLRRRMLAAAAERRLQKQQTS [AMFR]	-0.081	51.3	51.3	-0.387	0.15	-0.174
MGAAHSASEEVRELEGKTGFSSDQIEQLHRRFKQLSGDQPTIRKENFNNVPDLELNPIRSKIVRAFFDNRNLRKGPSGLADEINFEDFLTIMSYFRPIDTTMDEEQVELSRKEKLRFLFHMYDSDSDGRITLEEYRNVVEELLSGNPHIEKESARSIADGAMMEAASVCMGQMEPDQVYEGITFEDFLKIWQGIDIETKMHVRFLNMETMALCH [TESC]	0.0705	51.1	51.7	0.101	0.145	1.31
MDVAESPERDPHSPEDEEQPQGLSDDDILRDSGSDQDLDGAGVRASDLEDEESAARGPSQEEEDNHSDEEDRASEPKSQDQDSEVNELSRGPTSSPCEEEGDEGEEDRTSDLRDEASSVTRELDEHELDYDEEVPEEPAPAVQEDEAEKAGAEDDEEKGEGTPREEGKAGVQSVGEKESLEAAKEKKKEDDDGEIDDGEIDDDDLEEGEVKDPSDRKVRPRPTCRFFMKGNCTWGMNCRFIHPGVNDKGNYSLITKADPFPPNGAPPLGPHPLMPANPWGGPVVDEILPPPPPEPPTESAWERGLRHAKEVLKKATIRKEQEPDFEEKRFTVTIGEDEREFDKENEVFRDWNSRIPRDVRDTVLEPYADPYYDYEIERFWRGGQYENFRVQYTETEPYHNYRERERERERENRQRERERERERDRERERRQRERERERERERDKERQRRKEEWERERAKRDEKDRQHRDRDREKEREKEKGKPKPRSPQPPSRQAEPPKKEAATTGPQVKRADEWKDPWRRSKSPKKKLGVSVSPSRARRRRKTSASSASASNSSRSSSRSSSYSGSGSSRSRSRSSSYSSYSSRSSRHSSFSGSRSRSRSFSSSPSPSPTPSPHRPSIRTKGEPAPPPGKAGEKSVKKPAPPPAPPQATKTTAPVPEPTKPGDPREARRKERPARTPPRRRTLSGSGSGSGSSYSGSSSRSRSLSVSSVSSVSSATSSSSSAHSVDSEDMYADLASPVSSASSRSPAPAQTRKEKGKSKKEDGVKEEKRKRDSSTQPPKSAKPPAGGKSSQQPSTPQQAPPGQPQQGTFVAHKEIKLTLLNKAADKGSRKRYEPSDKDRQSPPPAKRPNTSPDRGSRDRKSGGRLGSPKPERQRGQNSKAPAAPADRKRQLSPQSKSSSKVTSVPGKASDPGAASTKSGKASTLSRREELLKQLKAVEDAIARKRAKIPGKA [ZC3H18]	0.144	48.7	51.3	-0.653	7.23	11.9
MVEADRPGKLFIGGLNTETNEKALETVFGKYGRIVEVLLIKDRETNKSRGFAFVTFESPADAKDAARDMNGKSLDGKAIKVEQATKPSFERGRHGPPPPPRSRGPPRGFGAGRGGSGGTRGPPSRGGHMDDGGYSMNFNMSSSRGPLPVKRGPPPRSGGPSPKRSAPSGLVRSSSGMGGRAPLSRGRDSYGGPPRREPLPSRRDVYLSPRDDGYSTKDSYSSRDYPSSRDTRDYAPPPRDYTYRDYGHSSSRDDYPSRGYGDRDGYGRDRDYSDHPSGGSYRDSYESYGNSRSAPLTRGPPPSYGGSSRYDDYSSSRDGYGGSRDSYSSSRSDLYSSCDRVGRQERGLPPSVERGYPSSRDSYSSSSRGAPRGAGPGGSRSDRGGGRSRY [RBMXL1]	0.637	46.5	51	-0.598	-0.08	0.0725
MDFLMSGLAACGACVFTNPLEVVKTRMQLQGELQAPGTYQRHYRNVFHAFITIGKVDGLAALQKGLAPALLYQFLMNGIRLGTYGLAEAGGYLHTAEGTHSPARSAAAGAMAGVMGAYLGSPIYMVKTHLQAQAASEIAVGHQYKHQGMFQALTEIGQKHGLVGLWRGALGGLPRVIVGSSTQLCTFSSTKDLLSQWEIFPPQSWKLALVAAMMSGIAVVLAMAPFDVACTRLYNQPTDAQGKGLMYRGILDALLQTARTEGIFGMYKGIGASYFRLGPHTILSLFFWDQLRSLYYTDTK [SLC25A35]	-0.137	56.2	54.3	0.0544	0.653	-0.326
MEQLRAAARLQIVLGHLGRPSAGAVVAHPTSGTISSASFHPQQFQYTLDNNVLTLEQRKFYEENGFLVIKNLVPDADIQRFRNEFEKICRKEVKPLGLTVMRDVTISKSEYAPSEKMITKVQDFQEDKELFRYCTLPEILKYVECFTGPNIMAMHTMLINKPPDSGKKTSRHPLHQDLHYFPFRPSDLIVCAWTAMEHISRNNGCLVVLPGTHKGSLKPHDYPKWEGGVNKMFHGIQDYEENKARVHLVMEKGDTVFFHPLLIHGSGQNKTQGFRKAISCHFASADCHYIDVKGTSQENIEKEVVGIAHKFFGAENSVNLKDIWMFRARLVKGERTNL [PHYH]	-0.191	51.6	52.4	0.298	2.97	2.13
MLVLFETSVGYAIFKVLNEKKLQEVDSLWKEFETPEKANKIVKLKHFEKFQDTAEALAAFTALMEGKINKQLKKVLKKIVKEAHEPLAVADAKLGGVIKEKLNLSCIHSPVVNELMRGIRSQMDGLIPGVEPREMAAMCLGLAHSLSRYRLKFSADKVDTMIVQAISLLDDLDKELNNYIMRCREWYGWHFPELGKIISDNLTYCKCLQKVGDRKNYASAKLSELLPEEVEAEVKAAAEISMGTEVSEEDICNILHLCTQVIEISEYRTQLYEYLQNRMMAIAPNVTVMVGELVGARLIAHAGSLLNLAKHAASTVQILGAEKALFRALKSRRDTPKYGLIYHASLVGQTSPKHKGKISRMLAAKTVLAIRYDAFGEDSSSAMGVENRAKLEARLRTLEDRGIRKISGTGKALAKTEKYEHKSEVKTYDPSGDSTLPTCSKKRKIEQVDKEDEITEKKAKKAKIKVKVEEEEEEKVAEEEETSVKKKKKRGKKKHIKEEPLSEEEPCTSTAIASPEKKKKKKKKRENED [NOP58]	1.07	52.5	51.5	-1.64	-0.671	-1.23
MSLEDPFFVVRGEVQKAVNTARGLYQRWCELLQESAAVGREELDWTTNELRNGLRSIEWDLEDLEETIGIVEANPGKFKLPAGDLQERKVFVERMREAVQEMKDHMVSPTAVAFLERNNREILAGKPAAQKSPSDLLDASAVSATSRYIEEQQATQQLIMDEQDQQLEMVSGSIQVLKHMSGRVGEELDEQGIMLDAFAQEMDHTQSRMDGVLRKLAKVSHMTSDRRQWCAIAVLVGVLLLVLILLFSL [STX10]	-0.107	52.1	51.6	-0.293	2.01	0.0715
MGRTYIVEETVGQYLSNINLQGKAFVSGLLIGQCSSQKDYVILATRTPPKEEQSENLKHPKAKLDNLDEEWATEHACQVSRMLPGGLLVLGVFIITTLELANDFQNALRRLMFAVEKSINRKRLWNFTEEEVSERVTLHICASTKKIFCRTYDIHDPKSSARPADWKYQSGLSSSWLSLECTVHINIHIPLSATSVSYTLEKNTKNGLTRWAKEIENGVYLINGQVKDEDCDLLEGQKKSSRGNTQATSHSFDVRVLTQLLLNSDHRSTATVQICSGSVNLKGAVKCRAYIHSSKPKVKDAVQAVKRDILNTVADRCEMLFEDLLLNEIPEKKDSEKEFHVLPYRVFVPLPGSTVMLCDYKFDDESAEEIRDHFMEMLDHTIQIEDLEIAEETNTACMSSSMNSQASLDNTDDEQPKQPIKTTMLLKIQQNIGVIAAFTVAVLAAGISFHYFSD [ODR4]	-0.0887	50.6	51.1	-0.0468	0.605	0.226
